Experimental data as given in patent US5763571A, “Inhibiting protein interactions” (The General Hospital Corporation, priority 1995, dated 1998).

Experiments:
GTPγS-loaded V12GrasH = assay: In vitro direct binding of Ras to immobilized GST-Raf (immunoblot); details: immobilized on glutathione agarose, 6 hours 4° C., pan-Ras immunoblot
Protocol: In vitro direct binding experiments were carried out as follows. […] After 6 hours of tumbling at 4° C., the glutathione agarose beads were washed and analyzed for the binding of Ras peptide by sodium dodecyl sulfate-polyacrylamide gel electrophoresis (SDS-PAGE), followed by immunoblotting using a pan-Ras monoclonal antibody-2 (oncogene Science).
The DNA sequences encoding Raf1 amino acid residues 1-257 were generated by the polymerase chain reaction (PCR), using as template the plasmids RSV-C4 and RSV-PM17 (Bruder, J. T., Heidecker, G. & Rapp, U.R. Genes Dev. 6, 545-556 (1992)), which encode the wild-type and C168 →S mutant sequences, respectively. The c-DNA were inserted into pGEX-KG (Guan, K. L. and Dixon J. E., Anal Biochem. 192, 262-267 (1991)) at the EcoR1 and Sall sites, and sequenced to confirm the mutation and proper in-frame insertion. […] About 50% of the recombinant peptides were recovered as full-length fusion proteins. […] The beads were washed 4×and resuspended in buffer A as a 50% suspension. […] Following transfer to polyvinylidene difluoride (PVDF) membrane, the membrane was immunoblotted using pan-Ras monoclonal antibody-2 (Oncogene Science) and detected using the enhanced chemiluminescence technique (Amersham).

[1] = target: T1, Ras-GAP stimulation of c-rasH GTPase (Homo sapiens, UniProt P01112); assay: Inhibition of Ras-GAP stimulation of c-rasH GTPase; assay type: biochemical; details: added at a concentration nearly equal to Ras-GAP
T1 construct: made in house; host or cells: Sf9 (baculovirus)
Protocol: The GTPase activity was estimated from the γ^32 P-GTP remaining bound to c-rasH after filtration.
In these experiments, baculoviral recombinant c-rasH was expressed and purified from the membrane pellet of Sf9 cells as described for the baculoviral membrane V12GrasH above. The c-rasH was charged with γ^32 P-GTP by combining 0.1 ml of c-rasH (approximately 10 μg/ml) in Ras storage buffer with 0.3 ml of 60 mM TrisCl, pH 7.5, 5 mM EDTA, 0.7 mg/ml BSA, 1.5 mM DTT, 4 mM ATP, 0.142 μM γ^32 P-GTP (4-6 ×10^5 cpm/pmole) on ice. After 1 hour, 50 μl of 135 mM MgCl2 was added. Loading of c-rasH with α^32 P-GTP was carried out under the same conditions; the α^32 P-GTP-c-rasHwas separated from unbound nucleotide by gel filtration (PD-10) in 25 mM TrisCl, pH 7.5, 5 mM MgCl2, 3 mM ATP, 1 mM DTT, and stored on ice. Baculoviral recombinant, full-length human GAP protein was extracted from Sf9 cells by homogenization in 25 mM TrisCl pH 7.5, 1 mM EGTA, 5 mM MgCl2, 1 mM DTT (GAP buffer) and protease inhibitors. […] GAP was detected using a radiolabeled Ras peptide in a filter binding assay. […] The mixture was filtered through a BA85 nitrocellulose membrane, washed 3×with 4 ml of stop solution, and the filters analyzed for retained ^32 P-labeled nucleotide.

GAP = target: T2, GAP (Homo sapiens, UniProt P20936); details: Schaber et al. 1989; cited from earlier work
T2 sequence (P20936 1-1047): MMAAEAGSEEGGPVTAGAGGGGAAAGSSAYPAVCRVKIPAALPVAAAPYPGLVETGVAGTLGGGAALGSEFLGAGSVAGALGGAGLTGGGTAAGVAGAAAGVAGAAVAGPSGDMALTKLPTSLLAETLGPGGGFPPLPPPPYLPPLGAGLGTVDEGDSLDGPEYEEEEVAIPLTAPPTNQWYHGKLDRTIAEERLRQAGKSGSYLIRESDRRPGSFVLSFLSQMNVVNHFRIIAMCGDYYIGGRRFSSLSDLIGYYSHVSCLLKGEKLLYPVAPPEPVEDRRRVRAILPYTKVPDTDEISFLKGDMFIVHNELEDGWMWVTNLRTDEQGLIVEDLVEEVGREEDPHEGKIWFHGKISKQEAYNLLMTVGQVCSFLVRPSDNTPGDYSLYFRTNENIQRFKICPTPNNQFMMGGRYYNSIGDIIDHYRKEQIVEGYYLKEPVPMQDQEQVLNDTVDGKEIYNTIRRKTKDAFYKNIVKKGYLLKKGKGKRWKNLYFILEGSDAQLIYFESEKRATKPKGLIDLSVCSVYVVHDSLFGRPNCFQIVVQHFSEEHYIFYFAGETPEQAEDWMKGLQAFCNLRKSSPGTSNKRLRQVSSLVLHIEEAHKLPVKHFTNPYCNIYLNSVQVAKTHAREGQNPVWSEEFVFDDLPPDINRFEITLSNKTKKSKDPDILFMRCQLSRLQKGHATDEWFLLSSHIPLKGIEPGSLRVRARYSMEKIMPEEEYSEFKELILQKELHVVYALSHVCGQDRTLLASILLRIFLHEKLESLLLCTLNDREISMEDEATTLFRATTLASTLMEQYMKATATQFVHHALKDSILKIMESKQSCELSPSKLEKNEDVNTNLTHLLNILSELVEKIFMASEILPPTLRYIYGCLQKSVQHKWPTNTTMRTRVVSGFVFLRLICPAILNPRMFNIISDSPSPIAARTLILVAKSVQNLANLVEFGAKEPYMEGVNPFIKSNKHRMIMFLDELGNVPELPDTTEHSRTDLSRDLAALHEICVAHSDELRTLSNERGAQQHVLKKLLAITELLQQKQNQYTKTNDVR

Ras-GTP = target: T3, Ras-GTP (Homo sapiens, UniProt P01112); assay: Comparative co-precipitation of Ras-GTP-γ-32P by GST-Raf proteins; assay type: binding; details: 10 pmol GST-Raf protein, single concentration
T3 construct: made in house; host or cells: E. coli

[2] = target: T4, complex formation between Ras-GTP and GST-Raf(1-257) (Homo sapiens, UniProt P01112+P04049); assay: Inhibition of Ras/Raf co-precipitation by synthetic peptides (contact epitope scanning); assay type: binding
T4 construct: 6xHis (6XH) (C); made in house; host or cells: E. coli

GST-Raf(1-257, C168 →S): mutant fragment in which serine replaces cysteine at position 168
Binding of GTPγS-V12GrasH (in words) (GTPγS-loaded V12GrasH): significantly lower amounts of Ras are retained | Inhibition of Ras-GAP stimulation of Ras GTPase (in words) [1]: significantly less inhibition

Ras 23-37: Ras peptide of a previous study (Schaber et al.) (LIQNHFVDEYDPTIE; UniProt P01112 23-37, looked up, fragment)
Competition of Ras/GAP interaction (in words), previous study (GAP): did not compete at all

31-43: Ras peptide of a previous study (Schaber et al.) (EYDPTIEDSYRKQ; UniProt P01112 31-43, looked up, fragment)
Competition of Ras/GAP interaction (in words), previous study (GAP): did not compete at all

GST-Raf(51-149): GST fusion of c-Raf-1 residues 51-149 (SEQ ID NO:7)
Complex formation with Ras-GTP-γ-32P by co-precipitation (in words) (Ras-GTP): complexed as well with Ras-GTP

96-112 peptide: acetylated, C-terminal amide peptide of c-Raf-1 residues 96-112 (Ac-CAVFRLLHEHKGKKARL-NH2)
Inhibition of Ras-Raf association by peptide (in words) [2]: little inhibition

GST-Raf(1-131): GST fusion of c-Raf-1 residues 1-131, unstable
Complex formation with Ras-GTP-γ-32P by co-precipitation (in words) (Ras-GTP): complexed as well with Ras-GTP
